T1: OX40 (CD134) (Mus musculus, UniProt P47741 P47741:20-211)
T1 sequence: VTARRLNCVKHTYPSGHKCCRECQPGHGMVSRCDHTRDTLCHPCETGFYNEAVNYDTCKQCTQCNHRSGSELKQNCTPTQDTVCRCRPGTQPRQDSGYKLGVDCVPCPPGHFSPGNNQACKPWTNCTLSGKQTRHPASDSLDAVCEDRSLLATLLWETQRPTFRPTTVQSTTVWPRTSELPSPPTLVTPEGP

B1: OX40 aptamer SEQ 77 (ssRNA)
RNA: GGGAGGACGAUGCGGCAGUCUGCAUCGUAGGAAUCGCCACCGUAUACUUUCCCACCAGACGACUCGCUGAGGAUCCGAGA
modifications: 2'-F pyrimidines, 2'-OH purines
B2: OX40 aptamer SEQ 78 (ssRNA)
RNA: GGGAGGACGAUGCGGAUACCAGGAUCACAUCCUGAGGAACCCCGGCUCCCAACCUCAGACGACUCGCUGAGGAUCCGAGA
modifications: 2'-F pyrimidines, 2'-OH purines
B3: OX40 aptamer SEQ 79 (ssRNA)
RNA: GGGAGGACGAUGCGGCUUUAAUCCUCGCACUCAGCGCGCAUCACCCUUGACAUCACAGACGACUCGCUGAGGAUCCGAGA
modifications: 2'-F pyrimidines, 2'-OH purines
B4: OX40 aptamer SEQ 80 (ssRNA)
RNA: GGGAGGACGAUGCGGCAAACCAGCUAUUUCCUGAGGUACCCCGGCUCUCCAUGGCAGACGACUCGCUGAGGAUCCGAGA
modifications: 2'-F pyrimidines, 2'-OH purines
B5: OX40 aptamer SEQ 81 (ssRNA)
RNA: GGGAGGACGAUGCGGAUACCAGCGAAUAACUCGCUGAGGAACCCGACUCACAAACAGACGACUCGCUGAGGAUCCGAGA
modifications: 2'-F pyrimidines, 2'-OH purines
B6: OX40 aptamer SEQ 82 (ssRNA)
RNA: GGGAGGACGAUGCGGCUUUUGAAUGCUCCCUUCACUCCAAGCGGCAGCCUAUCGUCAGACGACUCGCUGAGGAUCCGAGA
modifications: 2'-F pyrimidines, 2'-OH purines
B7: OX40 aptamer SEQ 83 (ssRNA)
RNA: GGGAGGACGAUGCGGAUACCACCUAGUGUGAGGAACCCCGCUUCCUAGACUGCGCAGACGACUCGCUGAGGAUCCGAGA
modifications: 2'-F pyrimidines, 2'-OH purines
B8: OX40 aptamer SEQ 84 (ssRNA)
RNA: GGGAGGACGAUGCGGCAACCCAUCCAUACCAACAUGGAGCUAAUGUUAGUCAACGCAGACGACUCGCUGAGGAUCCGAGA
modifications: 2'-F pyrimidines, 2'-OH purines
B9: OX40 aptamer SEQ 85 (ssRNA)
RNA: GGGAGGACGAUGCGGCACUAACUCCAGCGACUCCAUCGCCAUUCCAACUCUACGCCAGACGACUCGCUGAGGAUCCGAGA
modifications: 2'-F pyrimidines, 2'-OH purines
B10: OX40 aptamer SEQ 86 (ssRNA)
RNA: GGGAGGACGAUGCGGCCGUCAACCAAUCUCUCGCUUCACACGGCCAUGCCUCCAUCAGACGACUCGCUGAGGAUCCGAGA
modifications: 2'-F pyrimidines, 2'-OH purines

Target: T1, OX40 (CD134)
Assay: filter; 20 mM Hepes pH 7.4, 150 mM NaCl, 2 mM CaCl2; Kd not given
Conditions: tags: human IgG Fc fusion; chain copies: 2; label: 5' 32P
Method: Eleven rounds of selection were performed with increasing stringency throughout the selection process by increasing the RNA: OX40 protein ratio in the selection reaction. Aptamers from rounds 9 and 11 DNA were cloned into a plasmid vector, and single colonies were sequenced and amplified by low cycle PCR amplification following by in vitro transcription. Binding constants for the clones were determined using filter-binding assays in a buffer composed of 20 mM Hepes pH 7.4, 150 mM NaCl, 2 mM CaCl2. To determine the affinities of monomeric aptamers (e.g., which may be expressed as Kd or dissociation constant), serial dilutions of murine OX40 IgG Fc fusion protein, human IgG1, or protein G were incubated with monomeric 5′ ³²P radiolabeled aptamers at 2000 cpm/μL. The mixture was passed over a stack of membranes consisting of a nitrocellulose membrane and nylon membrane through application of a vacuum. The membranes were exposed to a phosphoimager screen, scanned and quantitated using a phosphoimager. Finally, differential fractions of RNA bound were calculated and graphed using commercially available software, and affinity was then expressed as Kd. The predicted secondary structure of the resultant nucleic acid aptamers was determined by utilizing the algorithm m-fold using default settings for folding parameters. Illustrative examples of the nucleic acid aptamers isolated from the aforementioned selections against OX40 are shown in Table 2; wherein nucleic acid sequences comprising SEQ ID NOs: […] represent the variable regions from clones with binding specificity to OX40; and a nucleic acid sequence comprising SEQ ID:87 represents the RNA library constant regions, with a constant region (e.g., nucleic acid bases in positions 1-41 of […]) flanking the 5′ end of the variable regions, a constant region (e.g., nucleic acid bases in positions 82-106 of SEQ ID NO:87) flanking the 3′end of the variable regions, and the variable regions being designated by N(40) in Table 2 (nucleic acid bases in positions 42-81 of SEQ ID NO:87). It is understood by those skilled in the art that the variable regions may be flanked by constant regions other than those comprising the constant regions depicted in SEQ ID NO: 87, while still retaining binding activity for OX40.

Binding result, binds:
B1
B2
B3
B4
B5
B6
B7
B8
B9
B10

— patent US20100076060, “Aptamers as agonists” (DUKE UNIVERSITY, published 2010)
